Measured values reported in patent US20260001928A1 (CORTERIA PHARMACEUTICALS, priority 2022, published 2026).
*1 amine or outer side, *2 acyl side, *3 side chain or, on linkers, in order; H or OH if unused. Primed or numbered codes have the meaning given here. Where no end group is shown, it is not given here. Side-chain parts run from the residue outwards. [ ]: non-standard residue; d: D form. The star is where a group is joined. Thp′ = 4-amino-tetrahydro-2H-pyran-4-yl-acetic acid, O=C(CC1(N[*:1])CCOCC1)[*:2]; C20 diacid = O=C(O)CCCCCCCCCCCCCCCCCCC(=O)*; C16 diacid = O=C(O)CCCCCCCCCCCCCCC(=O)*; γGlu = O=C(O)[C@H](CCC(=O)[*:2])N[*:1]; NMeI = CC[C@H](C)[C@H](NC)C(=O)O; Aib = CC(C)(N)C(=O)O

B1: SEQ ID NO 214 (peptide)
peptide: [NMeI]VLSLD[dV]PIKLK([γGlu-C20 diacid])KILLEQEKQKKQREQAETN[Aib]QILAQV-NH2
modifications: N-terminus assumed
SMILES: CC[C@H](C)[C@H](NC)C(=O)N[C@H](C(=O)N[C@@H](CC(C)C)C(=O)N[C@@H](CO)C(=O)N[C@@H](CC(C)C)C(=O)N[C@@H](CC(=O)O)C(=O)N[C@@H](C(=O)N1CCC[C@H]1C(=O)N[C@H](C(=O)N[C@@H](CCCCN)C(=O)N[C@@H](CC(C)C)C(=O)N[C@@H](CCCCNC(=O)CC[C@H](NC(=O)CCCCCCCCCCCCCCCCCCC(=O)O)C(=O)O)C(=O)N[C@@H](CCCCN)C(=O)N[C@H](C(=O)N[C@@H](CC(C)C)C(=O)N[C@@H](CC(C)C)C(=O)N[C@@H](CCC(=O)O)C(=O)N[C@@H](CCC(N)=O)C(=O)N[C@@H](CCC(=O)O)C(=O)N[C@@H](CCCCN)C(=O)N[C@@H](CCC(N)=O)C(=O)N[C@@H](CCCCN)C(=O)N[C@@H](CCCCN)C(=O)N[C@@H](CCC(N)=O)C(=O)N[C@@H](CCCNC(=N)N)C(=O)N[C@@H](CCC(=O)O)C(=O)N[C@@H](CCC(N)=O)C(=O)N[C@@H](C)C(=O)N[C@@H](CCC(=O)O)C(=O)N[C@H](C(=O)N[C@@H](CC(N)=O)C(=O)NC(C)(C)C(=O)N[C@@H](CCC(N)=O)C(=O)N[C@H](C(=O)N[C@@H](CC(C)C)C(=O)N[C@@H](C)C(=O)N[C@@H](CCC(N)=O)C(=O)N[C@H](C(N)=O)C(C)C)[C@@H](C)CC)[C@@H](C)O)[C@@H](C)CC)[C@@H](C)CC)C(C)C)C(C)C
B2: SEQ ID NO 10 (peptide)
peptide: IVLSLD[dV]PIKLK([γGlu-C16 diacid])QILLKQERQKKQREQAEKN[Aib]QILEQV-NH2
B3: SEQ ID NO 213 (peptide)
peptide: Ac-IVLSLD[dV]PIKLK([γGlu-C20 diacid])KILLEQEKQKEQREQAETN[Aib]QILAQV-NH2
SMILES: CC[C@H](C)[C@H](NC(C)=O)C(=O)N[C@H](C(=O)N[C@@H](CC(C)C)C(=O)N[C@@H](CO)C(=O)N[C@@H](CC(C)C)C(=O)N[C@@H](CC(=O)O)C(=O)N[C@@H](C(=O)N1CCC[C@H]1C(=O)N[C@H](C(=O)N[C@@H](CCCCN)C(=O)N[C@@H](CC(C)C)C(=O)N[C@@H](CCCCNC(=O)CC[C@H](NC(=O)CCCCCCCCCCCCCCCCCCC(=O)O)C(=O)O)C(=O)N[C@@H](CCCCN)C(=O)N[C@H](C(=O)N[C@@H](CC(C)C)C(=O)N[C@@H](CC(C)C)C(=O)N[C@@H](CCC(=O)O)C(=O)N[C@@H](CCC(N)=O)C(=O)N[C@@H](CCC(=O)O)C(=O)N[C@@H](CCCCN)C(=O)N[C@@H](CCC(N)=O)C(=O)N[C@@H](CCCCN)C(=O)N[C@@H](CCC(=O)O)C(=O)N[C@@H](CCC(N)=O)C(=O)N[C@@H](CCCNC(=N)N)C(=O)N[C@@H](CCC(=O)O)C(=O)N[C@@H](CCC(N)=O)C(=O)N[C@@H](C)C(=O)N[C@@H](CCC(=O)O)C(=O)N[C@H](C(=O)N[C@@H](CC(N)=O)C(=O)NC(C)(C)C(=O)N[C@@H](CCC(N)=O)C(=O)N[C@H](C(=O)N[C@@H](CC(C)C)C(=O)N[C@@H](C)C(=O)N[C@@H](CCC(N)=O)C(=O)N[C@H](C(N)=O)C(C)C)[C@@H](C)CC)[C@@H](C)O)[C@@H](C)CC)[C@@H](C)CC)C(C)C)C(C)C
B4: SEQ ID NO 210 (peptide)
peptide: Ac-IVLSLD[dV]PIKLK([γGlu-C20 diacid])KILLEQEKQKKQREQAETN[Thp′]QILAQV-NH2
B5: SEQ ID NO 212 (peptide)
peptide: Ac-IVLSLD[dV]PIKLK([γGlu-C20 diacid])KILLEQEKQKAQREQAETN[Aib]QILAQV-NH2
SMILES: CC[C@H](C)[C@H](NC(C)=O)C(=O)N[C@H](C(=O)N[C@@H](CC(C)C)C(=O)N[C@@H](CO)C(=O)N[C@@H](CC(C)C)C(=O)N[C@@H](CC(=O)O)C(=O)N[C@@H](C(=O)N1CCC[C@H]1C(=O)N[C@H](C(=O)N[C@@H](CCCCN)C(=O)N[C@@H](CC(C)C)C(=O)N[C@@H](CCCCNC(=O)CC[C@H](NC(=O)CCCCCCCCCCCCCCCCCCC(=O)O)C(=O)O)C(=O)N[C@@H](CCCCN)C(=O)N[C@H](C(=O)N[C@@H](CC(C)C)C(=O)N[C@@H](CC(C)C)C(=O)N[C@@H](CCC(=O)O)C(=O)N[C@@H](CCC(N)=O)C(=O)N[C@@H](CCC(=O)O)C(=O)N[C@@H](CCCCN)C(=O)N[C@@H](CCC(N)=O)C(=O)N[C@@H](CCCCN)C(=O)N[C@@H](C)C(=O)N[C@@H](CCC(N)=O)C(=O)N[C@@H](CCCNC(=N)N)C(=O)N[C@@H](CCC(=O)O)C(=O)N[C@@H](CCC(N)=O)C(=O)N[C@@H](C)C(=O)N[C@@H](CCC(=O)O)C(=O)N[C@H](C(=O)N[C@@H](CC(N)=O)C(=O)NC(C)(C)C(=O)N[C@@H](CCC(N)=O)C(=O)N[C@H](C(=O)N[C@@H](CC(C)C)C(=O)N[C@@H](C)C(=O)N[C@@H](CCC(N)=O)C(=O)N[C@H](C(N)=O)C(C)C)[C@@H](C)CC)[C@@H](C)O)[C@@H](C)CC)[C@@H](C)CC)C(C)C)C(C)C
B6: SEQ ID NO 209 (peptide)
peptide: Ac-IVLSLD[dV]PIKLK([γGlu-C20 diacid])KILLEQEKQK[Aib]QREQAETN[Aib]QILAQV-NH2
SMILES: CC[C@H](C)[C@H](NC(C)=O)C(=O)N[C@H](C(=O)N[C@@H](CC(C)C)C(=O)N[C@@H](CO)C(=O)N[C@@H](CC(C)C)C(=O)N[C@@H](CC(=O)O)C(=O)N[C@@H](C(=O)N1CCC[C@H]1C(=O)N[C@H](C(=O)N[C@@H](CCCCN)C(=O)N[C@@H](CC(C)C)C(=O)N[C@@H](CCCCNC(=O)CC[C@H](NC(=O)CCCCCCCCCCCCCCCCCCC(=O)O)C(=O)O)C(=O)N[C@@H](CCCCN)C(=O)N[C@H](C(=O)N[C@@H](CC(C)C)C(=O)N[C@@H](CC(C)C)C(=O)N[C@@H](CCC(=O)O)C(=O)N[C@@H](CCC(N)=O)C(=O)N[C@@H](CCC(=O)O)C(=O)N[C@@H](CCCCN)C(=O)N[C@@H](CCC(N)=O)C(=O)N[C@@H](CCCCN)C(=O)NC(C)(C)C(=O)N[C@@H](CCC(N)=O)C(=O)N[C@@H](CCCNC(=N)N)C(=O)N[C@@H](CCC(=O)O)C(=O)N[C@@H](CCC(N)=O)C(=O)N[C@@H](C)C(=O)N[C@@H](CCC(=O)O)C(=O)N[C@H](C(=O)N[C@@H](CC(N)=O)C(=O)NC(C)(C)C(=O)N[C@@H](CCC(N)=O)C(=O)N[C@H](C(=O)N[C@@H](CC(C)C)C(=O)N[C@@H](C)C(=O)N[C@@H](CCC(N)=O)C(=O)N[C@H](C(N)=O)C(C)C)[C@@H](C)CC)[C@@H](C)O)[C@@H](C)CC)[C@@H](C)CC)C(C)C)C(C)C
B7: SEQ ID NO 211 (peptide)
peptide: Ac-IVLSLD[dV]PIKLK([γGlu-C20 diacid])KILLEQEAQKKQREQAETN[Aib]QILAQV-NH2
SMILES: CC[C@H](C)[C@H](NC(C)=O)C(=O)N[C@H](C(=O)N[C@@H](CC(C)C)C(=O)N[C@@H](CO)C(=O)N[C@@H](CC(C)C)C(=O)N[C@@H](CC(=O)O)C(=O)N[C@@H](C(=O)N1CCC[C@H]1C(=O)N[C@H](C(=O)N[C@@H](CCCCN)C(=O)N[C@@H](CC(C)C)C(=O)N[C@@H](CCCCNC(=O)CC[C@H](NC(=O)CCCCCCCCCCCCCCCCCCC(=O)O)C(=O)O)C(=O)N[C@@H](CCCCN)C(=O)N[C@H](C(=O)N[C@@H](CC(C)C)C(=O)N[C@@H](CC(C)C)C(=O)N[C@@H](CCC(=O)O)C(=O)N[C@@H](CCC(N)=O)C(=O)N[C@@H](CCC(=O)O)C(=O)N[C@@H](C)C(=O)N[C@@H](CCC(N)=O)C(=O)N[C@@H](CCCCN)C(=O)N[C@@H](CCCCN)C(=O)N[C@@H](CCC(N)=O)C(=O)N[C@@H](CCCNC(=N)N)C(=O)N[C@@H](CCC(=O)O)C(=O)N[C@@H](CCC(N)=O)C(=O)N[C@@H](C)C(=O)N[C@@H](CCC(=O)O)C(=O)N[C@H](C(=O)N[C@@H](CC(N)=O)C(=O)NC(C)(C)C(=O)N[C@@H](CCC(N)=O)C(=O)N[C@H](C(=O)N[C@@H](CC(C)C)C(=O)N[C@@H](C)C(=O)N[C@@H](CCC(N)=O)C(=O)N[C@H](C(N)=O)C(C)C)[C@@H](C)CC)[C@@H](C)O)[C@@H](C)CC)[C@@H](C)CC)C(C)C)C(C)C

How the values were obtained:
[1] = molecular target: T1, CRF1R receptor (UniProt P34998 24-415, limits assumed); assay: cell-based or functional assay
T1 sequence (looked up): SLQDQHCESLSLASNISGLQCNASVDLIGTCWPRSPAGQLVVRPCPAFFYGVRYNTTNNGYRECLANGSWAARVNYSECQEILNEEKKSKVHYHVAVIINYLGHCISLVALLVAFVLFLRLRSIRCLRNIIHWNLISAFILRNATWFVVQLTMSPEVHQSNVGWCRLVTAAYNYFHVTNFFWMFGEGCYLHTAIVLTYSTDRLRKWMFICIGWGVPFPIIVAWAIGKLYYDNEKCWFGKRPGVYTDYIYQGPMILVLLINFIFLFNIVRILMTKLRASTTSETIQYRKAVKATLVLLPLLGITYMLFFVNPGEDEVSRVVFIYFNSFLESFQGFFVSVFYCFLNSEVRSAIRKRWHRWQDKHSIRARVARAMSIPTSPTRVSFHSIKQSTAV

[2] = molecular target: human corticotropin-releasing factor 2a (CRF2a receptor) (human), Q13324; assay: cell-based or functional assay
human corticotropin-releasing factor 2a (CRF2a receptor) (human), Q13324, sequence (Q13324 20-411): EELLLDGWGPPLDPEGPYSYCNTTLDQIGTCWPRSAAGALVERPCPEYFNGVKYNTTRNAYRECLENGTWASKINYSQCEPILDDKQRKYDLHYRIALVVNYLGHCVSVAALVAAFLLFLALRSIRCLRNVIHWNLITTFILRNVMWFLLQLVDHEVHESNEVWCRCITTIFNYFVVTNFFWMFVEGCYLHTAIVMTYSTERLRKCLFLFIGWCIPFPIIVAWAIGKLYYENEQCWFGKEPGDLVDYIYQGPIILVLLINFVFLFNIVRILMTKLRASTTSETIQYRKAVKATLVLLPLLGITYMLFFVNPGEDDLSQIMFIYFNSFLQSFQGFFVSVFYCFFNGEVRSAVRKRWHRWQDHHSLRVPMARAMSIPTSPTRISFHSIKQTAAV

| Binder | Emax (% I) [1] [%] | EC50 [nM] (cAMP) [2] | EC50 [1] [nM] |
| --- | --- | --- | --- |
| B1 | 34 | 0.12 | – |
| B2 | 26 | 0.17 | > 250 |
| B3 | 27 | 0.22 | – |
| B4 | 35 | 0.21 | > 250 |
| B5 | 41 | 0.11 | 229 |
| B6 | 21 | 0.22 | – |
| B7 | 73 | 0.15 | 39.9 |
